Reference: patent US20170030918A1 (MOR NUCO ENTERPRISES, published 2017)

Assays:
[1] = biological target: T1, serotransferrin (human, UniProt P02787 20-698); test: 2-D gel / western blot of patient sera
T1 construct: Protein from patient sera on a denaturing 2-D blot; also called Serrotransferrin
Method: (§1) Serum was prepared from 5 ml of blood collected by venipuncture (with tourniquet) in standard B & D 13×100 (7 ml) vacutainer clot tubes (or equivalent) with or without hemoguard closure. After approximately 30 min at room temperature to allow for clotting, the clot was pelleted by centrifugation for 5 to 10 min at 2,500 to 3,000 rpm. Clot-free serum was decanted into a clean tube, labeled and analyzed fresh or stored frozen.
(§2) For western blot analysis, 30 μl of sera was added to 120 μl of Rehydration Buffer (7 M urea, 2 M thiourea, 2% (w/v) CHAPS [(3-[(3-cholamidopropyl)dimethylammonio]-1-propane-sulfonate), a nondenaturing zwitterionic detergent], 0.5% (w/v) ASB-14 (amidosulfobetaine-14, a zwitterionic detergent), 0.5% (v/v) ampholytes pH 3-10 (Bio-Rad), 0.5% (v/v) immobilized pH gradient (IPG) buffer pH 3-10 (Amersham-Pharmacia Biotech) and 65 mM dithiothreitol). The samples were quickly vortexed to mix sera with Rehydration Buffer. Four to six mg of protein were loaded for analysis. The samples were electrophoresed in the first dimension by using a commercial flatbed electrophoresis system (Ettan IPGphor 3, Amersham-Pharmacia Biotech) with IPG dry strips (Amersham). A linear pH range of 3 to 10 on 7 cm IPG strips was used. The IPG strips were rehydrated with the samples overnight at room temperature. […]

[2] = biological target: T2, serum albumin (human, UniProt P02768 25-609); test: 2-D gel electrophoresis / western blot of patient sera
T2 construct: Protein from patient sera on a denaturing 2-D blot; also called Ab
T2 sequence (P02768 25-609 limits assumed): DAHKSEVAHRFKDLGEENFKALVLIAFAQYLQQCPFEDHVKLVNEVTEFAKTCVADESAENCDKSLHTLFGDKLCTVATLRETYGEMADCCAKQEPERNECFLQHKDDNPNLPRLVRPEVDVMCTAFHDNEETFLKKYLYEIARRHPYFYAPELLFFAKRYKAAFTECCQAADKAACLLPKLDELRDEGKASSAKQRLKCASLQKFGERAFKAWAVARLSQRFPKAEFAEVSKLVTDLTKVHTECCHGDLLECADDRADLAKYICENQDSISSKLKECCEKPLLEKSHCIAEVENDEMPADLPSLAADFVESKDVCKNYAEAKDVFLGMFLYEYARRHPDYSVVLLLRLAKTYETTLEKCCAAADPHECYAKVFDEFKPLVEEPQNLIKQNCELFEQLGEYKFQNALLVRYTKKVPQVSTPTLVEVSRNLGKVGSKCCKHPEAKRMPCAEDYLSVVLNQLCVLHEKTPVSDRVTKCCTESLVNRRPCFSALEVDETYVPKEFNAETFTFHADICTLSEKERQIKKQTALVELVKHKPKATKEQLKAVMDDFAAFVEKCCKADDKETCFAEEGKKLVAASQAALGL
Method: as §1, §2

T1 sequence (P02787 20-698 limits assumed): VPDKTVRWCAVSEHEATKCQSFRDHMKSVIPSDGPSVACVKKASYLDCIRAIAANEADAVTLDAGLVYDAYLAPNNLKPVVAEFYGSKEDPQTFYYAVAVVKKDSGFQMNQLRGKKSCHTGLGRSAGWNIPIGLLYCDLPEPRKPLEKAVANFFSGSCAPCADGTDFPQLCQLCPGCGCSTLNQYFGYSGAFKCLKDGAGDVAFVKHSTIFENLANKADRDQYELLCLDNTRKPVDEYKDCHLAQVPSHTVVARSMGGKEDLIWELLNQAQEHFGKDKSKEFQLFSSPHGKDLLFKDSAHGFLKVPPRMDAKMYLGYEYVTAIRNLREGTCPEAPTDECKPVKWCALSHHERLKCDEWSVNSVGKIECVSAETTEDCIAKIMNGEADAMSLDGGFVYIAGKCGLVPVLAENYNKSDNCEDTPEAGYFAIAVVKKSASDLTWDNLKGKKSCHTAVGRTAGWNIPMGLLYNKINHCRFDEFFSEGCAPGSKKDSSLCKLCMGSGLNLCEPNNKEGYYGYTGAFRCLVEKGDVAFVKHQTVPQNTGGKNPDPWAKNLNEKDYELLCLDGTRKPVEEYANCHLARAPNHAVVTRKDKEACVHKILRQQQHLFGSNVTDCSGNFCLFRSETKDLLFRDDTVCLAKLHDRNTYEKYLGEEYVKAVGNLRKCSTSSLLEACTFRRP

B1: recombinant anti-ENOX2 single chain variable region antibody carrying an S-tag, ScFv(S) (scFv)
scFv: EVKLQESGTEVVKPGASVKLSCKASGYIFTSYDIDWVRQTPEQGLEWIGWIFPGEGSTEYNEKFKGRATLSVDKSSSTAYMELTRLTSEDSAVYFCARGDYYRRYFDLWGQGTTVTVSSGGGGSGGGGSGGGGSENVLTQSPAIMSASPGERVTMTCSASSSIRYIYWYQQKPGSSPRLLIYDTSNVAPGVPFRFSGSGSGTSYSLTINRMEAEDAATYYCQEWSGYPYTFGGGTKLELKAKETAAAKFERQHMDS
notes: Derived from the hybridoma that makes the ENOX2-specific monoclonal antibody; also called pan ENOX2 recombinant scFv antibody; recombinant anti-ECTO-NOX antibody (single chain variable region ScFv)
What does the source list for B1?
binding result [1]: binds; binding result [2]: no binding
